Assay results published in the supplement of paper PMC9170038.

System: MS2 coat protein
Assay: apparent KD of MS2 coat protein; designed switch direction (-1 OFF switch, 1 ON switch): -1; higher = weaker reporter binding
Summary of the method: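 On Illumina chips, designed RNA switches with common flanks were made by stalled E. coli RNA polymerase. Titrations with SNAP-549-labelled MS2 coat protein, doubling from 0.7 or 1.5 nM to 3 µM, were done with no input, with 200 uM small-molecule ligand, or with an oligonucleotide input. Apparent KD is the median per design over clusters, from curve fits of normalised cluster fluorescence.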

[1] = input ligand: microRNA oligo, concentration not stated
[2] = Eterna round: R95, input ligand: FMN 200 uM
[3] = Eterna round: R95, input ligand: microRNA oligo, concentration not stated
[4] = Eterna round: R95, input ligand: none

| Sequence | apparent KD of MS2 coat protein (input ligand: FMN 200 uM) [µM] | apparent KD of MS2 coat protein (input ligand: none) [µM] | apparent KD of MS2 coat protein [3] [µM] | other results |
| --- | --- | --- | --- | --- |
| CCUAGUUGGUAAGGAUAUCCUACACUGUUCUGACCCGGGCAUGCUACAUGAGGAUCACCCAUGUGGGAGAAGGUGCGUCAACGC [Design 14] (Eterna round: R96, puzzle: Exclusion NG 2) | 0.0368 | 0.0306 |  | apparent KD of MS2 coat protein [1]: 0.0193 µM |
| GUGUCUCGUGUAGGAUAUGCGCGAGGUCUUUGUGCAGAAGGACAUGAGGAUCACCCAUGUAUUCCGCGGCGCGGGCAUGUGUCC [-29/-27 Kcal and A 18%] (Eterna round: R96, puzzle: Exclusion NG 1) | 0.249 | 0.0525 |  | apparent KD of MS2 coat protein [1]: 0.0467 µM |
| AAGAAACAUGAGGAUCACCCAUGUGAGGAUAUGAAAAAGAAAAGAAAAGAAAGAAGAAUCAGAAGGCACAAAGC [salish99-ex1_r3_090] (Eterna round: R96, puzzle: Exclusion 1) | 0.024 | 0.0312 |  | apparent KD of MS2 coat protein [1]: 0.0253 µM |
| GGCGACCACCUCGUGCACUACAUGAGGAUCACCCAUGUUUUUCGCUCGUCUUAUGCGCCAACCUCCCAAACACUAAG [Gelaesxe] (puzzle: Sensor v3, turn-off variant 1) |  |  | 0.103 | apparent KD of MS2 coat protein [2]: 0.0346 µM; apparent KD of MS2 coat protein [4]: 0.0354 µM |
| GUUUCGAGACGGAGAUCCGACAUGAGGAUCACCCAUGUCUCGUAAGCUUUUUGCUCGUCUUAUACUCCUCUGUUCUC [Elimod 49 - Jieux - Sensor, turn-off variant 1] (Eterna round: R97, puzzle: Sensor, turn-off variant 1) | 0.026 | 0.0272 |  |  |
| UUUGUCUGUGUGAGGAUAUACUUGUUUGGGUUUUUGUAGAAGGCACAUGAGGAUCACCCAUGUAUUUUGUUGUG [JR_BME4_Sub017] (puzzle: Brourd's mod of Exclusion 4) |  |  | 0.0497 |  |
| AAUAACAAGCCGAUCCUUUACAUGAGGAUCACCCAUGUGCUCGUCUUGUAAAGUACUAUCACGAAAGUGAUAGUACA (Eterna round: R97, puzzle: Sensor, turn-off variant 1) | 0.028 | 0.027 |  |  |
| CCGGAAAGGAAGGAUAUGCUAGACGAAAGUCUAGCAGAAGGUCCUACAUGAGGAUCACCCAUGUGUCCUCCCGG [Eli x6 4.08] (Eterna round: R97, puzzle: Exclusion 6) | 2.27 | 0.27 |  |  |
| UCGGCGCUAGGAUAUGCGUCGAAAGACAUGAGGAUCACCCAUGUGGUGCUCCUUAUUAAAGCAGAAGGAGCCCGUA [EX5 A.17] (Eterna round: R97, puzzle: Exclusion 5) | 0.3 | 0.152 |  |  |
| UUAUUAUAUGUAGGAUAUGCAUAUUGUUGUUAUGCAGAAGGACAUGAGGAUCACCCAUGUAUAUUAUUGUUAUAUAUUGUAUAU [Title] (Eterna round: R96, puzzle: Exclusion NG 1) |  |  |  | apparent KD of MS2 coat protein [1]: 0.0182 µM |
| AAUAUACAUGUAGGAUAUCUGCACGUGUAGUGCAGAGAAGGACAUGAGGAUCACCCAUGUAAUUAAGAUCAAUUAUUAAAUAUU [ENG1/3-B3] (Eterna round: R96, puzzle: Exclusion NG 1) | 0.447 | 0.0623 |  | apparent KD of MS2 coat protein [1]: 0.0322 µM |
| CCUAAACAUGAGGAUCACCCAUGUGAGGAUAUGAUGCAGCAGUGGUCUACGCUGUGCAUCAGAAGGUACAUGGU (puzzle: Exclusion 1) |  |  | 0.0734 |  |
| UUUUAACAUGAGGAUCACCCAUGUGAGGAUAUCGAAAUUUAUAUUAAUAUUUAUAAUUCGAGAAGGCACAUUUU [JMF 53] (puzzle: Exclusion 1) |  |  | 0.155 |  |
| UUAAAAUAUGUAGGAUAUGCGUGGCGAAGCUAUGCAGAAGGACAUGAGGAUCACCCAUGUUCCUGCGUCCGCGUACGGAUGCAA [JL Eng1 1.21 mod 3] (Eterna round: R96, puzzle: Exclusion NG 1) | 0.0148 | 0.0124 |  | apparent KD of MS2 coat protein [1]: 0.00915 µM |
| UUUAAUUGUGACAUGGGUGACAUGAGGAUCACCCAUGUCACAAGCUUUUUGCUCGUCUUAUAAUUAACCCAUGUCAC [Stov1/13-A1] (Eterna round: R97, puzzle: Sensor, turn-off variant 1) | 0.0256 | 0.0277 |  |  |
| AAUUAGCAAGCAAGAUCCCACAUGAGGAUCACCCAUGUGCUCGUCUUAUAAGGUACUGUGACGAUAGUCACGGUACC [Mat - Sensor, turn-off var - Eli Mod - D49] (Eterna round: R97, puzzle: Sensor, turn-off variant 1) | 0.0429 | 0.0494 |  |  |
| CAGUACUGAGGAUAUACAUGAGGAUCACCCAUGUGCUCAAAGUAGGAUACUACUAUUAGUAGAAGGCAGUACUG [Fiskers Ex 3 828 mod 21] (puzzle: Exclusion 3) |  |  | 0.0235 |  |
| GGGUUACAUGAGGAUCACCCAUGUGAGGAUAUGAUACUAUGUACUUCGGUACAUAGUAUCAGAAGGCACAUCCC [Ex1-3: 20] (puzzle: Exclusion 1) |  |  | 0.0314 |  |

| Sequence | apparent KD of MS2 coat protein (input ligand: FMN 200 uM) [µM] | apparent KD of MS2 coat protein (input ligand: none) [µM] | apparent KD of MS2 coat protein [3] [µM] | other results |
| --- | --- | --- | --- | --- |
| GCGCACUAAGUGAGGAUAUCGAUUUUUUUUAGGAUCGAGAAGGCACAUGAGGAUCACCCAUGUUUGACGUGCGC [JR_BMOE4_Sub098] (puzzle: Brourd's mod of Exclusion 4) |  |  | 0.015 |  |
| AGAUGUAGAUACCGGUCCUACAUGAGGAUCACCCAUGUAGCUUGACGUGCGGGCGGCGCUCGUCGGUCUACCAGUAG [salish99_TOv1_r3_100] (puzzle: Sensor v3, turn-off variant 1) |  |  | 0.0286 | apparent KD of MS2 coat protein [2]: 0.0273 µM; apparent KD of MS2 coat protein [4]: 0.0362 µM |
| GGUCAUAGGUAAGGAUAUGAAGAUCUGGUGGUGACAUGAGGAUCACCCAUGUGAAAACGAUGAGAUCAGAAGGUACAAUAUGAA [AK ExNG2-4.1] (Eterna round: R96, puzzle: Exclusion NG 2) | 0.0727 | 0.0864 |  | apparent KD of MS2 coat protein [1]: 0.0491 µM |
| AGUAUGCGGCAGGAUAUCCAUCCGCGGAAAGGUGGAGAAGGGCUGACAUGAGGAUCACCCAUGUGCGUCCUGUA [salish99_ex6_r4_029] (Eterna round: R97, puzzle: Exclusion 6) | 0.0335 | 0.0204 |  |  |
| GUGGGUUACAUGAGGAUCACCCAUGUAUAGUGGGAAGAGAUAUAGGAUAUAAUAUAAAAAUUAUAUUAGAAGGAUAGAGACUAG [AK ExNG3-1.2] (Eterna round: R96, puzzle: Exclusion NG 3) | 0.491 | 0.505 |  | apparent KD of MS2 coat protein [1]: 0.285 µM |
| UUCCGGUGAGGAUAUUGCACGGUGGGAGAGAGCGCCACUGUCAAGAAGGUACAUGAGGAUCACCCAUGUGAGUA [Eternabot (L1) Solution 24] (Eterna round: R97, puzzle: Exclusion 4) | 0.0211 | 0.0251 |  |  |
| UAUAAACAUGAGGAUCACCCAUGUGAGGAUAUCAAAACCAGAGCGGAUCUCUGGCCCAUGAGAAGGUGCAUGGU [ElNandoxlusion 8 - Jieux - Exclusion 1] (Eterna round: R97, puzzle: Exclusion 1) | 0.137 | 0.0262 |  |  |
| AAUAACAGAGGAUAUACUAUUUUAUGUGUUUGUUAUUUUGAACAUGAGGAUCACCCAUGUAGAAGGCUGAGUAA [JMF 36] (puzzle: Exclusion 2) |  |  | 0.0268 |  |
| GCUAGGAGUGUGAGGAUAUGCUGUUCCUUGGAACAGCAGAAGGCACAUGAGGAUCACCCAUGUGAAGACCUAGC [Mat - Exclusion 4 - JL Mod - D3] (Eterna round: R97, puzzle: Brourd's mod of Exclusion 4) | 0.149 | 0.0245 |  |  |
| GCCGGCUAUGUAGGAUAUGGGCCUGAUACGGGUCUAGAAGGACAUGAGGAUCACCCAUGUAUCGUGCGCUGGUGGCUUGCCGGU [-30, -30 kcal and 19% A] (Eterna round: R96, puzzle: Exclusion NG 1) | 0.389 | 0.141 |  | apparent KD of MS2 coat protein [1]: 0.119 µM |
| AGCUUUGGAGGAUAUUGAGCGGAAAACAUGAGGAUCACCCAUGUAAGUGGGCGAAAUGUAUAAGAAGGCCGAAGGU [Eternabot (L2) Solution 15] (Eterna round: R97, puzzle: Exclusion 5) | 0.205 | 0.278 |  |  |
| AGUUGGCGAGGAUAUACAUGAGGAUCACCCAUGUGAGAGAUACUAGUGAGGUCGGUUAGUAGAAGGCGCUGACA [Mat X3R4 m16] (Eterna round: R97, puzzle: Exclusion 3) | 0.344 | 0.0355 |  |  |
| AAAUUGUGAGGAUAUUCGUAGUACACGGAGACGUGUAUUACGGAGAAGGCACAUGAGGAUCACCCAUGUUCCUU [jl-ex4-13 Eli mod] (Eterna round: R97, puzzle: Exclusion 4) | 0.103 | 0.0191 |  |  |
| GCGGACUUGAACGUGAGUUCAGAGACAUGAGGAUCACCCAUGUAGGAUAUCGAUUCGAAACGAAUCGAGAAGGGCAUGGUCCGC [JL denovo 14] (Eterna round: R96, puzzle: Exclusion NG 3) | 0.0374 | 0.0288 |  | apparent KD of MS2 coat protein [1]: 0.0213 µM |
| CCUCUACAUGAGGAUCACCCAUGUGAGGAUAUCUCGGAAAAGCCACUUAAGGUACUCCAGAGAAGGCACGUGUA [Rileed] (puzzle: Exclusion 1) |  |  | 0.0152 |  |
| AAGAUGUCAGGAUAUUAGUAGUAAAUGAAUAAAAUUAUUACUGAGAAGGGACAUGAGGAUCACCCAUGUGCCUU [Mat - Exclusion 4 - Eli Mod - D10] (Eterna round: R97, puzzle: Exclusion 4) | 0.0175 | 0.0166 |  |  |
| AGUACUAACACGUUAGUGUUAGUACAAUAAGCUUGUGAAACAUGAGGAUCACCCAUGUCCUCAUAAGCUCGUCUUAU [salish99_TOv2_r3_056] (puzzle: Sensor v3, turn-off variant 2) |  |  | 0.645 | apparent KD of MS2 coat protein [2]: 0.0167 µM; apparent KD of MS2 coat protein [4]: 0.0161 µM |
